Drawing on patent US20260374864 (published 2026), this text covers Kd for four molecules.

This test addresses human CD22, His-tagged recombinant (human, UniProt P20273). The experiment in a line: SPR.

Sequence of human CD22, His-tagged recombinant (P20273 20-687): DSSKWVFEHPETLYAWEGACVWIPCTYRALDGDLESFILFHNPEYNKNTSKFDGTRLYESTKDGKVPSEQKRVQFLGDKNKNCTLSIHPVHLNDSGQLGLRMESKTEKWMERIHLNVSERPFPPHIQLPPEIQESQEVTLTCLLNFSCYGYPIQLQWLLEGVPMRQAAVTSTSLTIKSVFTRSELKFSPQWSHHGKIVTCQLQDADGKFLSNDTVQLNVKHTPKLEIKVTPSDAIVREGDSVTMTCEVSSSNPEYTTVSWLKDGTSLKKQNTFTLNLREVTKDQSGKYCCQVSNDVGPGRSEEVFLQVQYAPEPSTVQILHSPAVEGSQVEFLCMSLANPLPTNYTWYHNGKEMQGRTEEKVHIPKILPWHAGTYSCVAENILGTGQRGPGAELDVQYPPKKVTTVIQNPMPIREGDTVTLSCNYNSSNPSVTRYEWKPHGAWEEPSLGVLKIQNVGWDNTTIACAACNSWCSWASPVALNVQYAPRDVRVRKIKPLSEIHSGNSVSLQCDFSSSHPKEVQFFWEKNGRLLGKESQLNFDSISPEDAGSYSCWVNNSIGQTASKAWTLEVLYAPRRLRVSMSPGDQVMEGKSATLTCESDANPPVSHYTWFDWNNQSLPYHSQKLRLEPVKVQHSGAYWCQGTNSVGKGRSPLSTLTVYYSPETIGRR

B1: CD22-mAb-1 (antibody, V domains shown)
VH: QVQLVQSGAEVKKPGASVKVSCKASGYTFTGYYIHWVRQAPGQGLEWMGWINPNSGGTNYAQKFQGRVTMTRDTSIGTAYMELSRLRSDDTAIYYCTREDTWNYIDYWGQGTLVTVSS
VL: DIQMTQSPSSLSASVGDRVTITCRASQSISSHLNWYQQKPGKAPKLLIYAASSLHSGVPSRFSGSGSGTDFTLTISSLQPEDFATYCCQQSYSTPRTFGQGTKVEIK
Regarding B1, the Kd was 0.0377 nM.

B2: CD22-mAb-3 (antibody, V domains shown)
VH: QVTLRESGPALVKTTQTLTLTCTFSGFSLSTSGMCVSWIRQPPGKALEWLALIDWDDDKYYSTSLKTRLTISKDTSKSQVVLTMTSMDPVDTATYYCARIRYIYGYDYFDYWGQGTLVTVSS
VL: DIQMTQSPSSLSASVGDRVTITCRASQRISSQLNWYQQKPGKAPKLLIYAASSLQSGVPSRFSGSGSGTEFTLTISSLQPEDIATYCCQQTYSKPITFGQGTRLEIK
As for B2, the Kd turned out to be 1.7 nM.

B3: CD22-mAb-2 (antibody, V domains shown)
VH: QVTLRESGPALVKPTQTLTLTCTFSGISLTTSGMCVSWIRQPPGKALEWLALIDWDGDNYYSTSLKTRLTISKDTSKNQVVLTMASMDPVDTATYYCARMGYTYGYDAFDIWGQGTMVTVSS
VL: EIVLTQSPEFQSVTPTEKVTITCRASQSIGSLLHWYQQKPDQSPKLLIKFASQSLSGVPSRFSGSGSGTDFTLTINSLEAEDAATYYCHQSRSLPFTFGPGTKVDIN
For B3, the Kd is 0.358 nM.

B4: CD22-mAb-4 (antibody, V domains shown)
VH: QVQLVESGGGVVQPGRSLRLSCAASGFTFSSYGMHWVRQAPGKGLEWVAIIYYDGSKKYYADSVKGRFTISRDNSKNTLYLQMNSLRAEDTAVYYCARELTGDAFDIWGQGTKVTVSS
VL: EIVLTQSPDFQSVTPKEKVTITCRASQSIGSSLHWYQQKPDQSPKLLIKYASQSFSGVPSKFIGSGSGTDFTLTINSLEAEDAATFYCHQSSTLPYTFGQGTKLEIK
On to B4, for which the Kd was 2.59 nM.

In general, Kd refers to a measure of binding affinity in units of concentration.
